Values of other authors in article PMC9326902.
pKd: −log10 of the molar value.

Target: Hemoglobin (Homo sapiens) (UniProt P69905)
Chain of UniProt P69905 (P69905 2-142, chain 1 of 2): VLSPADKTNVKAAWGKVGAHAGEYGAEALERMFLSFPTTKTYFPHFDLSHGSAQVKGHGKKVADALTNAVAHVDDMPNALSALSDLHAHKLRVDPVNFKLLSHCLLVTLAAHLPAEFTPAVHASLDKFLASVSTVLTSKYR
Chain of UniProt P69905 (P68871 2-147, chain 2 of 2, further chain): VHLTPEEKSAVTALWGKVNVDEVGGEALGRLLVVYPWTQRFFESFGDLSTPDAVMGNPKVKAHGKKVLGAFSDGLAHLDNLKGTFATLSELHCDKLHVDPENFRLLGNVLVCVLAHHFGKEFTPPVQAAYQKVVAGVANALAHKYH

For IsdH N2 (from UniProt Q2FXJ2), the pKd is listed as 5.12.
